In the supplement of paper PMC10567573:

B1: INTS4 (parent)
chain: YSSGEFSSGRKWGDDAPKEEVDTG
B2: NET1 (parent)
chain: PTPAKRRSSALWSEMLDITMKESL

Variants of: B1
Test: protein stability index of a GFP-peptide fusion (GPS, HEK-293T) (PSI 1-6); higher = more stable
Conditions: c terminus: a fixed tail appended
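Note: lentivirally expressed fusions sorted by FACS into six bins by GFP to DsRed ratio, PSI derived from sequencing read proportions per bin multiplied by bin number.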

Variant	protein stability index
YSSGEFSAGRKWGDDAPKEEVDTG [S8A]	2.75
YSSGEFSRGRKWGDDAPKEEVDTG [S8R]	2.24
YSSGEFSDGRKWGDDAPKEEVDTG [S8D]	3.79
YSSGEFSGGRKWGDDAPKEEVDTG [S8G]	3.83
YSSGEFSPGRKWGDDAPKEEVDTG [S8P]	3.25
YSSGEFSVGRKWGDDAPKEEVDTG [S8V]	1.57
YSSGEFSSGRKWGLDAPKEEVDTG [D14L]	1.98
YSSGEFSSGRKWGMDAPKEEVDTG [D14M]	1.94
YSSGEFSSGRKWGHDAPKEEVDTG [D14H]	2.73
YSSGEFSSGRKWGGDAPKEEVDTG [D14G]	1.22
YSSGEFSSGRKWGTDAPKEEVDTG [D14T]	1.94
YSSGEFSSGRKWGSDAPKEEVDTG [D14S]	2.19
YSSGEFSSGRKWGDDWPKEEVDTG [A16W]	2.01
YSSGEFSSGRKWGDDEPKEEVDTG [A16E]	2.99
YSSGEFSSGRKWGDDRPKEEVDTG [A16R]	2.71
YSSGEFSSGRKWGDDCPKEEVDTG [A16C]	2.71
YSSGEFSSGRKWGDDIPKEEVDTG [A16I]	2.28
YSSGEFSSGRKWGDDVPKEEVDTG [A16V]	2.42
YSSGEFSSGRKWGDDAPKEWVDTG [E20W]	1.97
YSSGEFSSGRKWGDDAPKEHVDTG [E20H]	2.63
YSSGEFSSGRKWGDDAPKEAVDTG [E20A]	2.3
YSSGEFSSGRKWGDDAPKESVDTG [E20S]	1.91
YSSGEFSSGRKWGDDAPKEYVDTG [E20Y]	3.19
YSSGEFSSGRKWGDIAPKEEVDTG [D15I]	1.11
YSSGEFSSGRKWGDEAPKEEVDTG [D15E]	3.12
YSSGEFSSGRKWGDFAPKEEVDTG [D15F]	3.02

Variant	protein stability index
YSSGEFSSGRKWGDNAPKEEVDTG [D15N]	2.34
YSSGEFSSGRKWGDRAPKEEVDTG [D15R]	1.92
YSSGEFSSGRKWGDDAPKEEVDGG [T23G]	2.81
YSSGEFSSGRKWGDDAPKEEVDCG [T23C]	2.95
YSSGEFSSGRKWGDDAPKEEVDKG [T23K]	2.46
YSSGEFSSGRKWGDDAPKEEVDQG [T23Q]	2.15
YSKGEFSSGRKWGDDAPKEEVDTG [S3K]	4.51
YSEGEFSSGRKWGDDAPKEEVDTG [S3E]	5.22
YSVGEFSSGRKWGDDAPKEEVDTG [S3V]	4.77
YSPGEFSSGRKWGDDAPKEEVDTG [S3P]	4.1
YSCGEFSSGRKWGDDAPKEEVDTG [S3C]	4.1
YSFGEFSSGRKWGDDAPKEEVDTG [S3F]	3.93
YSDGEFSSGRKWGDDAPKEEVDTG [S3D]	5.15
YSSGERSSGRKWGDDAPKEEVDTG [F6R]	4.63
YSSGECSSGRKWGDDAPKEEVDTG [F6C]	5.11
YSSGEGSSGRKWGDDAPKEEVDTG [F6G]	4.57
YSSGEDSSGRKWGDDAPKEEVDTG [F6D]	5.75
YSSGELSSGRKWGDDAPKEEVDTG [F6L]	4.24
YSSGETSSGRKWGDDAPKEEVDTG [F6T]	4.79
YSSGESSSGRKWGDDAPKEEVDTG [F6S]	5.16
YSSGEFASGRKWGDDAPKEEVDTG [S7A]	1.91
YSSGEFVSGRKWGDDAPKEEVDTG [S7V]	2.27
YSSGEFFSGRKWGDDAPKEEVDTG [S7F]	2.98
YSSGEFESGRKWGDDAPKEEVDTG [S7E]	4.21
YSSGEFLSGRKWGDDAPKEEVDTG [S7L]	2.43
YSSGEFSSGRKWGDDAPKEEWDTG [V21W]	1.82

Variant	protein stability index
YSSGEFSSGRKWGDDAPKEEQDTG [V21Q]	2.73
YSSGEFSSGRKWGDDAPKEEGDTG [V21G]	2.94
YSSGEFSSGRKWGDDAPKEEMDTG [V21M]	2.78
YSSGEFSSGRKWGDDAPKEEPDTG [V21P]	3.13
YSSGEFSSGRKWGDDAPKEEEDTG [V21E]	2.84
YSSGEFSSGRKWMDDAPKEEVDTG [G13M]	2.45
YSSGEFSSGRKWSDDAPKEEVDTG [G13S]	2.94
YSSGEFSSGRKWCDDAPKEEVDTG [G13C]	2.65
YSSGEFSSGRKWKDDAPKEEVDTG [G13K]	2.5
YSSGEFSSGRKWHDDAPKEEVDTG [G13H]	3.66
YSSGEFSSGRKWRDDAPKEEVDTG [G13R]	2.15
YSSQEFSSGRKWGDDAPKEEVDTG [G4Q]	3.92
YSSVEFSSGRKWGDDAPKEEVDTG [G4V]	3.87
YSSDEFSSGRKWGDDAPKEEVDTG [G4D]	4.57
YSSYEFSSGRKWGDDAPKEEVDTG [G4Y]	3.91
YSSFEFSSGRKWGDDAPKEEVDTG [G4F]	3.6
YSSGEFSSGEKWGDDAPKEEVDTG [R10E]	3.65
YSSGEFSSGDKWGDDAPKEEVDTG [R10D]	3.93
YSSGEFSSGKKWGDDAPKEEVDTG [R10K]	2.81
YSSGEFSSGWKWGDDAPKEEVDTG [R10W]	1.65
YSSGEFSSGIKWGDDAPKEEVDTG [R10I]	2.13
YSSGEFSSGRKWGDDATKEEVDTG [P17T]	2.96
YSSGEFSSGRKWGDDAFKEEVDTG [P17F]	2.45
YSSGEFSSGRKWGDDALKEEVDTG [P17L]	2.57
YSSGEFSSGRKWGDDANKEEVDTG [P17N]	2.87
YSSGEFSSGRKWGDDASKEEVDTG [P17S]	3.25

Variant	protein stability index
YSSGEFSSGRKWGDDAKKEEVDTG [P17K]	2.31
YSSGEFSSGRKWGDDAMKEEVDTG [P17M]	2.39
YSSGEFSSGRKWGDDAAKEEVDTG [P17A]	2.84
YSSGEFSSGRKWGDDAPKEEVLTG [D22L]	2.27
YSSGEFSSGRKWGDDAPKEEVVTG [D22V]	1.86
YSSGEFSSGRKWGDDAPKEEVPTG [D22P]	2.38
YSSGEFSSGRKWGDDAPKEEVATG [D22A]	2.06
YSSGEFSSGRKWGDDAPKEEVFTG [D22F]	3.28
YSSGEFSSGRKWGDDAPKGEVDTG [E19G]	2.48
YSSGEFSSGRKWGDDAPKKEVDTG [E19K]	2
YSSGEFSSGRKWGDDAPKQEVDTG [E19Q]	2.95
YSSGEFSSGRKWGDDAPKHEVDTG [E19H]	2.09
YSSGEFSSGRGWGDDAPKEEVDTG [K11G]	2.98
YSSGEFSSGRDWGDDAPKEEVDTG [K11D]	2.73
YSSGEFSSGRAWGDDAPKEEVDTG [K11A]	2.7
YSSGEFSSGRHWGDDAPKEEVDTG [K11H]	2.45
ASSGEFSSGRKWGDDAPKEEVDTG [Y1A]	4.93
CSSGEFSSGRKWGDDAPKEEVDTG [Y1C]	3.87
GSSGEFSSGRKWGDDAPKEEVDTG [Y1G]	5.47
ESSGEFSSGRKWGDDAPKEEVDTG [Y1E]	5.74
MSSGEFSSGRKWGDDAPKEEVDTG [Y1M]	5.39
YSSGEFSSNRKWGDDAPKEEVDTG [G9N]	2.59
YSSGEFSSCRKWGDDAPKEEVDTG [G9C]	1.75
YSSGEFSSLRKWGDDAPKEEVDTG [G9L]	2.49
YSSGEFSSHRKWGDDAPKEEVDTG [G9H]	2.43
YSSGEFSSMRKWGDDAPKEEVDTG [G9M]	1.83

Variant	protein stability index
YSSGEFSSGRKWGDDAPKEEVDTQ [G24Q]	2.58
YSSGEFSSGRKWGDDAPKEEVDTC [G24C]	2.96
YSSGEFSSGRKWGDDAPKEEVDTN [G24N]	3.09
YSSGEFSSGRKWGDDAPKEEVDTT [G24T]	2.72
YSSGEFSSGRKNGDDAPKEEVDTG [W12N]	3.3
YSSGEFSSGRKEGDDAPKEEVDTG [W12E]	3.84
YSSGEFSSGRKVGDDAPKEEVDTG [W12V]	3.08
YCSGEFSSGRKWGDDAPKEEVDTG [S2C]	2.04
YASGEFSSGRKWGDDAPKEEVDTG [S2A]	2.28
YHSGEFSSGRKWGDDAPKEEVDTG [S2H]	1.48
YDSGEFSSGRKWGDDAPKEEVDTG [S2D]	5.77
YFSGEFSSGRKWGDDAPKEEVDTG [S2F]	4.02
YGSGEFSSGRKWGDDAPKEEVDTG [S2G]	1.95
YYSGEFSSGRKWGDDAPKEEVDTG [S2Y]	4.92
YSSGEFSSGRKWGDDAPREEVDTG [K18R]	3.13
YSSGEFSSGRKWGDDAPMEEVDTG [K18M]	2.82
YSSGEFSSGRKWGDDAPYEEVDTG [K18Y]	2.62
YSSGEFSSGRKWGDDAPGEEVDTG [K18G]	3.44
YSSGEFSSGRKWGDDAPPEEVDTG [K18P]	3.08
YSSGIFSSGRKWGDDAPKEEVDTG [E5I]	1.97
YSSGPFSSGRKWGDDAPKEEVDTG [E5P]	2.95
YSSGCFSSGRKWGDDAPKEEVDTG [E5C]	1.84
YSSGKFSSGRKWGDDAPKEEVDTG [E5K]	2.22
YSSGVFSSGRKWGDDAPKEEVDTG [E5V]	1.32

Variants of: B2
Test: as above
Conditions: c terminus: a fixed tail appended

Variant	protein stability index
WTPAKRRSSALWSEMLDITMKESL [P1W]	1.89
NTPAKRRSSALWSEMLDITMKESL [P1N]	2.33
ATPAKRRSSALWSEMLDITMKESL [P1A]	2.56
VTPAKRRSSALWSEMLDITMKESL [P1V]	2.63
CTPAKRRSSALWSEMLDITMKESL [P1C]	1.75
KTPAKRRSSALWSEMLDITMKESL [P1K]	2.04
ITPAKRRSSALWSEMLDITMKESL [P1I]	2.07
STPAKRRSSALWSEMLDITMKESL [P1S]	1.45
DTPAKRRSSALWSEMLDITMKESL [P1D]	2.12
LTPAKRRSSALWSEMLDITMKESL [P1L]	2.25
QTPAKRRSSALWSEMLDITMKESL [P1Q]	2.78
GTPAKRRSSALWSEMLDITMKESL [P1G]	2.28
HTPAKRRSSALWSEMLDITMKESL [P1H]	3.04
TTPAKRRSSALWSEMLDITMKESL [P1T]	1.67
MTPAKRRSSALWSEMLDITMKESL [P1M]	1.72
RTPAKRRSSALWSEMLDITMKESL [P1R]	1.92
PTPCKRRSSALWSEMLDITMKESL [A4C]	1.47
PTPHKRRSSALWSEMLDITMKESL [A4H]	1.84
PTPGKRRSSALWSEMLDITMKESL [A4G]	2.3
PTPKKRRSSALWSEMLDITMKESL [A4K]	2.63

Variant	protein stability index
PTPIKRRSSALWSEMLDITMKESL [A4I]	1.99
PTPFKRRSSALWSEMLDITMKESL [A4F]	2.03
PTPLKRRSSALWSEMLDITMKESL [A4L]	1.85
PTPDKRRSSALWSEMLDITMKESL [A4D]	2.46
PTPEKRRSSALWSEMLDITMKESL [A4E]	2.48
PTSAKRRSSALWSEMLDITMKESL [P3S]	2.17
PTWAKRRSSALWSEMLDITMKESL [P3W]	3.24
PTYAKRRSSALWSEMLDITMKESL [P3Y]	1.61
PTAAKRRSSALWSEMLDITMKESL [P3A]	1.88
PTRAKRRSSALWSEMLDITMKESL [P3R]	2.5
PTQAKRRSSALWSEMLDITMKESL [P3Q]	2.39
PTNAKRRSSALWSEMLDITMKESL [P3N]	2.27
PTTAKRRSSALWSEMLDITMKESL [P3T]	2.21
PTGAKRRSSALWSEMLDITMKESL [P3G]	2.27
PTCAKRRSSALWSEMLDITMKESL [P3C]	1.81
PTMAKRRSSALWSEMLDITMKESL [P3M]	2.24
PTLAKRRSSALWSEMLDITMKESL [P3L]	2.1
PTHAKRRSSALWSEMLDITMKESL [P3H]	2.05
PTIAKRRSSALWSEMLDITMKESL [P3I]	2.49
PTEAKRRSSALWSEMLDITMKESL [P3E]	2.25

Variant	protein stability index
PTKAKRRSSALWSEMLDITMKESL [P3K]	2.44
PTDAKRRSSALWSEMLDITMKESL [P3D]	2.32
PFPAKRRSSALWSEMLDITMKESL [T2F]	1.97
PRPAKRRSSALWSEMLDITMKESL [T2R]	2.34
PVPAKRRSSALWSEMLDITMKESL [T2V]	2.54
PAPAKRRSSALWSEMLDITMKESL [T2A]	2.93
PHPAKRRSSALWSEMLDITMKESL [T2H]	2.85
PIPAKRRSSALWSEMLDITMKESL [T2I]	2.26
PSPAKRRSSALWSEMLDITMKESL [T2S]	1.62
PCPAKRRSSALWSEMLDITMKESL [T2C]	1.55
PKPAKRRSSALWSEMLDITMKESL [T2K]	2.15
PEPAKRRSSALWSEMLDITMKESL [T2E]	3.04
PDPAKRRSSALWSEMLDITMKESL [T2D]	2.73
PWPAKRRSSALWSEMLDITMKESL [T2W]	1.5
PGPAKRRSSALWSEMLDITMKESL [T2G]	2.06
PQPAKRRSSALWSEMLDITMKESL [T2Q]	2.33
PLPAKRRSSALWSEMLDITMKESL [T2L]	2.84
PYPAKRRSSALWSEMLDITMKESL [T2Y]	1.86
PNPAKRRSSALWSEMLDITMKESL [T2N]	2.38
PMPAKRRSSALWSEMLDITMKESL [T2M]	2.11
